Reference: patent publication US20020151682A1 (UCB, published 2002)

Target: T1, human tumour necrosis factor alpha (TNFα) (human, UniProt P01375 77-233)
T1 construct: also called human TNF; recombinant human TNFα
Test: affinity; method not named at the sentence (BiaCore with captured hTNF40 and human TNF in flow is described at paragraph 169)
Description: Following the injection of ligand, buffer was passed over the surface so that the dissociation could be measured.

T1 sequence (P01375 77-233 limits assumed): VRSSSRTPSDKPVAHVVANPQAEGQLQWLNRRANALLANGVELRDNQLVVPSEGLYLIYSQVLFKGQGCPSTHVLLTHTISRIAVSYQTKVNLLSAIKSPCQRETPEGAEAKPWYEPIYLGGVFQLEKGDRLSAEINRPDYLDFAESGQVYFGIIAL

B1: mouse monoclonal antibody hTNF40 (antibody, IgG2a, V domains shown)
VH: QIQLVQSGPELKKPGETVKISCKASGYVFTDYGMNWVKQAPGKAFKWMGWINTYIGEPIYVDDFKGRFAFSLETSASTAFLQINNLKNEDTATYFCARGYRSYAMDYWGQGTSVTVSS
VL: DIVMTQSQKFMSTSVGDRVSVTCKASQNVGTNVAWYQQKPGQSPKALIYSASFLYSGVPYRFTGSGSGTDFTLTISTVQSEDLAEYFCQQYNIYPLTFGAGTKLELKR
notes: The light chain constant region is kappa and the heavy chain constant region is IgG2a (mouse); also called murine hTNF40; the donor antibody
B1 was tested, and the Kd was about 0.085 nM.
